Assay results from patent US6137031, “DNA binding proteins that interact with NPR1” (Duke University, dated 2000).

B1: AHBP-1b (full-length, two-hybrid prey in pJG4-5) (other)
chain: MADTSPRTDVSTDDDTDHPDLGSEGALVNTAASDSSDRSKGKMDQKTLRRLAQNREAARKSRLRKKAYVQQLENSRLKLTQLEQELQRARQQGVFISGTGDQAHSTGGNGALAFDAEHSRWLEEKNKQMNELRSALNAHAGDSELRIIVDGVMAHYEELFRIKSNAAKNDVFHLLSGMWKTPAERCFLWLGGFRSSELLKLLANQLEPMTERQLMGINNLQQTSQQAEDALSQGMESLQQSLADTLSSGTLGSSSSGNVASYMGQMAMAMGKLGTLEGFIRQADNLRLQTLQQMIRVLTTRQSARALLAIHDYFSRLRALSSLWLARPRE
B2: NPR1 1-177 (pEGNPR11-177) (other)
chain: MDTTIDGFADSYEISSTSFVATDNTDSSIVYLAAEQVLTGPDVSALQLLSNSFESVFDSPDDFYSDAKLVLSDGREVSFHRCVLSARSSFFKSALAAAKKEKDSNNTAAVKLELKEIAKDYEVGFDSVVTVLAYVYSSRVRPPPKGVSECADENCCHVACRPAVDFMLEVLYLAFIF
B3: TGA6 (full-length, two-hybrid prey in pJG4-5) (other)
chain: MADTSSRTDVSTDGDTDHRDLGSDRGHMHAAASDSSDRSKDKLDQKTLRRLAQNREAARKSRLRKKAYVQQLENSRLKLTQLEQELQRARQQGVFISSSGDQAHSTGGNGALAFDAEHSRWLEEKNRQMNELRSALNAHAGDTELRIIVDGVMAHYEELFRIKSNAAKNDVFHLLSGMWKTPAERCFLWLGGFRSSELLKLLANQLEPMTERQVMGINSLQQTSQQAEDALSQGMESLQQSLADTLSSGTLGSSSSDNVASYMGQMAMAMGQLGTLEGFIRQADNLRLQTLQQMLRVLTTRQSARALLAIHDYSSRLRALSSLWLARPRE

Columns and labels:
[1] = molecular target: full-length tomato NPR1 homolog (tomato); assay: yeast two-hybrid, β-galactosidase reporter
[2] = molecular target: full-length A. thaliana NPR1 (two-hybrid bait in pEG202) (Arabidopsis thaliana) (UniProt P93002); assay: yeast two-hybrid, β-galactosidase reporter
[3] = molecular target: NPR1 1-432 (pEGNPR11-432) (Arabidopsis thaliana) (UniProt P93002); assay: yeast two-hybrid, β-galactosidase reporter
[4] = molecular target: NPR1 178-593 (pEGNPR1178-593) (Arabidopsis thaliana) (UniProt P93002); assay: yeast two-hybrid, β-galactosidase reporter
[5] = molecular target: npr1-1 mutant NPR1 bait (Arabidopsis thaliana, UniProt P93002); assay: yeast two-hybrid, β-galactosidase activity
[6] = molecular target: npr1-2 mutant NPR1 bait (Arabidopsis thaliana, UniProt P93002); assay: yeast two-hybrid, β-galactosidase activity
[7] = molecular target: B1; assay: yeast two-hybrid, β-galactosidase activity

| Molecule | units of β-galactosidase activity [2] [units] | binding result [5] | binding result [6] | other results |
| --- | --- | --- | --- | --- |
| NIF1 (NPR-1-Interacting Factor 1) | – | – | – | units of β-galactosidase activity [1]: 1290 units |
| OBF5 (full-length, two-hybrid prey in pJG4-5) (from UniProt Q39163) | 7.6 | – | – | – |
| B1 | 673 | no binding | no binding | units of β-galactosidase activity [3]: 522 units; units of β-galactosidase activity [4]: 17.6 units |
| B2 | – | – | – | binding result [7]: no binding |
| B3 | 372 | no binding | no binding | – |
